Residue numbers refer to the chain shown, from its start. Blank lines part the entries; values can stand above or below the binder they belong to.
Tests used:
[1] = molecular target: Serum IgE from a pool of birch allergic patients (human); experiment: fluid-phase IgE-inhibition assay
[2] = molecular target: Serum IgE from a pool of birch allergic patients (human); experiment: fluid-phase IgE-inhibition assay; competitor biotinylated Bet v 1 no. 2801

factor by which affinity is lowered vs recombinant Bet v 1 [1]: 2 fold
B1: Bet v 1 mutant Asn28Thr+Lys32Gln (protein)
chain: GVFNYETETTSVIPAARLFKAFILDGDTLFPQVAPQAISSVENIEGNGGPGTIKKISFPEGLPFKYVKDRVDEVDHTNFKYNYSVIEGGPIGDTLEKISNEIKIVATPDGGSILKISNKYHTKGDHEVKAEQVKASKEMGETLLRAVESYLLAHSDAYN

factor by which affinity is lowered vs recombinant Bet v 1 [1]: 2 fold
B2: Bet v 1 Glu45Ser mutant (protein)
chain: B1 chain with T28N, Q32K, E45S

amount to reach 80% inhibition [2]: 20 ng
B3: Recombinant Bet v 1 No. 2801 (protein)
chain: B1 chain with T28N, Q32K

factor by which affinity is lowered vs recombinant Bet v 1 [1]: 2 fold
B4: Bet v 1 Pro108Gly mutant (protein)
chain: B1 chain with T28N, Q32K, P108G

factor of decrease in affinity vs recombinant Bet v 1 (at 50% inhibition) [1]: 5 fold
factor of decrease vs recombinant Bet v 1 (at 80% inhibition) [1]: 20 fold
amount to reach 80% inhibition [2]: 400 ng
B5: Bet v 1 Triple-patch mutant (Asn28Thr, Lys32Gln, Glu45Ser, Pro108Gly) (protein)
chain: B1 chain with E45S, P108G

Source: patent US20040091500A1
